Measurements as given in article doi:10.1101/2024.11.26.625467.

Biological target: CA09 N1 sNAp (stabilized NA protein, neuraminidase head of H1N1 A/California/07/2009) (influenza A virus H1N1 A/California/07/2009)
Assay: cryo-EM structure

“CA09 N1 sNAp (stabilized NA protein, neuraminidase head of H1N1 A/California/07/2009) (domain or fragment)” showed a stoichiometry N of 4.
